From the supplement of paper PMC10567573

B1: KLHL13 (parent)
chain: TGEFLKLPFERLAFVLSSNSLKHC
B2: ALDH8A1 (parent)
chain: FTGSQPTAERITQLSAPHCKKLSL

Variants of: B1
Assay: protein stability index of a GFP-peptide fusion (GPS, HEK-293T) (PSI 1-6); higher = more stable
Conditions: c terminus: a fixed tail appended
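Note: lentivirally expressed fusions sorted by FACS into six bins by GFP to DsRed ratio, PSI derived from sequencing read proportions per bin multiplied by bin number.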

Variant | protein stability index
TGEFLKLPFERLAFVLSSNSLKHM [C24M] | 2.65
TGEFLKLPFERLAFVLSSNSLKHI [C24I] | 4.16
TGEFLKLPFERLAFVLSSNSLKHY [C24Y] | 3.19
TGEFLKLPFERLAFVLSSNSLKHW [C24W] | 1.03
TGEFLKLPFERLAFVLSSNSLKHA [C24A] | 1.75
TGEFLKLPFERLAFVLSSNSLKHT [C24T] | 2.1
TGEFLKLPFERLAFVLSFNSLKHC [S18F] | 2.48
TGEFLKLPFERLAFVLSWNSLKHC [S18W] | 2.81
TGEFLKLPFERLAFVLSNNSLKHC [S18N] | 1.98
TGEFLKLPFERLAFVLSVNSLKHC [S18V] | 4.13
TGEFLKLPFERLAFVLSLNSLKHC [S18L] | 3.02
TGEFLKLPFERLAFVLSHNSLKHC [S18H] | 2.48
TGEFLKLPFERLAFVLSQNSLKHC [S18Q] | 1.61
TGEFLKLPFERLAFVLSENSLKHC [S18E] | 2.37
TGEFLKLPFERLAFVLSCNSLKHC [S18C] | 3.11
TGEFLKLPFERLAFVLSDNSLKHC [S18D] | 2.42
TGEFLKLPFERLAFVLSKNSLKHC [S18K] | 3.09
TGEFLKLPFERLAFVLSYNSLKHC [S18Y] | 2.79
TGEFLKLPFERLAFVLSANSLKHC [S18A] | 1.35
TGEFLKLPFERLAFVLSPNSLKHC [S18P] | 2.64
TGEFLKLPFERLAFVLRSNSLKHC [S17R] | 2.82
TGEFLKLPFERLAFVLESNSLKHC [S17E] | 1.86
TGEFLKLPFERLAFVLWSNSLKHC [S17W] | 3.66

Variant | protein stability index
TGEFLKLPFERLAFVLDSNSLKHC [S17D] | 1.06
TGEFLKLPFERLAFVLLSNSLKHC [S17L] | 2.06
TGEFLKLPFERLAFVLMSNSLKHC [S17M] | 2.2
TGEFLKLPFERLAFVLCSNSLKHC [S17C] | 5.02
TGEFLKLPFERLAFVLASNSLKHC [S17A] | 3.79
TGEFLKLPFERLAFVLNSNSLKHC [S17N] | 2.33
TGEFLKLPFERLAFVLKSNSLKHC [S17K] | 1.05
TGEFLKLPFERLAFVLISNSLKHC [S17I] | 1.71
TGEFLKLPFERLAFVLQSNSLKHC [S17Q] | 1.72
TGEFLKLPFERLAFVLYSNSLKHC [S17Y] | 2.46
TGEFLKLPFERLAFVLPSNSLKHC [S17P] | 1.7
TGEFLKLPFERLAFVLSSNSLKQC [H23Q] | 4.44
TGEFLKLPFERLAFVLSSNSLKKC [H23K] | 2.49
TGEFLKLPFERLAFVLSSNSLKTC [H23T] | 2.17
TGEFLKLPFERLAFVLSSNSLKWC [H23W] | 1.88
TGEFLKLPFERLAFVLSSNSLKMC [H23M] | 2.02
TGEFLKLPFERLAFVLSSNSLKYC [H23Y] | 3.32
TGEFLKLPFERLAFVLSSNSLKRC [H23R] | 1.99
TGEFLKLPFERLAFVLSSNSLKNC [H23N] | 2.42
TGEFLKLPFERLAFVLSSNSLKDC [H23D] | 2.27
TGEFLKLPFERLAFVLSSNSLKSC [H23S] | 4.04
TGEFLKLPFERLAFVLSSNSLKPC [H23P] | 1.85
TGEFLKLPFERLAFVLSSNSLKVC [H23V] | 2.8

Variant | protein stability index
TGEFLKLPFERLAFVLSSNSLKCC [H23C] | 2.87
TGEFLKLPFERLAFSLSSNSLKHC [V15S] | 2.32
TGEFLKLPFERLAFRLSSNSLKHC [V15R] | 1.53
TGEFLKLPFERLAFALSSNSLKHC [V15A] | 1.84
TGEFLKLPFERLAFILSSNSLKHC [V15I] | 2
TGEFLKLPFERLAFLLSSNSLKHC [V15L] | 3.05
TGEFLKLPFERLAFNLSSNSLKHC [V15N] | 1.95
TGEFLKLPFERLAFKLSSNSLKHC [V15K] | 1.81
TGEFLKLPFERLAFFLSSNSLKHC [V15F] | 2.39
TGEFLKLPFERLAFDLSSNSLKHC [V15D] | 1.82
TGEFLKLPFERLAFTLSSNSLKHC [V15T] | 1.59
TGEFLKLPFERLAFMLSSNSLKHC [V15M] | 1.96
TGEFLKLPFERLAFGLSSNSLKHC [V15G] | 3.31
TGEFLKLPFERLAFPLSSNSLKHC [V15P] | 2.53
TGEFLKLPFERLAFQLSSNSLKHC [V15Q] | 2.31
TGEFLKLPFERLAFWLSSNSLKHC [V15W] | 3.3
TGEFLKLPFERLAFYLSSNSLKHC [V15Y] | 1.06
TGEFLKLPFERLAFCLSSNSLKHC [V15C] | 2.21
TGEFLKLPFERLAFELSSNSLKHC [V15E] | 1.78
TGEFLKLPFERLAFHLSSNSLKHC [V15H] | 2.27
TGEFLKLPFERLSFVLSSNSLKHC [A13S] | 1.99
TGEFLKLPFERLPFVLSSNSLKHC [A13P] | 3.04
TGEFLKLPFERLTFVLSSNSLKHC [A13T] | 2.76

Variant | protein stability index
TGEFLKLPFERLQFVLSSNSLKHC [A13Q] | 2.26
TGEFLKLPFERLNFVLSSNSLKHC [A13N] | 1.93
TGEFLKLPFERLRFVLSSNSLKHC [A13R] | 1.85
TGEFLKLPFERLYFVLSSNSLKHC [A13Y] | 3.93
TGEFLKLPFERLAFVLSSNSLPHC [K22P] | 3.24
TGEFLKLPFERLAFVLSSNSLCHC [K22C] | 4.71
TGEFLKLPFERLAFVLSSNSLYHC [K22Y] | 1.96
TGEFLKLPFERLAFVLSSNSLGHC [K22G] | 2.18
TGEFLKLPFERLAFVLSSNSLVHC [K22V] | 3.78
TGEFLKLPFERLAFVLSSNSLAHC [K22A] | 2.4
TGEFLKLPFERLAFVLSSNSLTHC [K22T] | 2.34
TGEFLKLPFERLAFVLSSNSLIHC [K22I] | 2.96
TGEFLKLPFERLAFVLSSNSLLHC [K22L] | 3.44
TGEFLKLPFERLAFVLSSNSLSHC [K22S] | 4.04
TGEFLKLPFERLAFVLSSNSLNHC [K22N] | 4.57
TGEFLKLPFERLAFVLSSNSLDHC [K22D] | 2.77
TGEFLKLPFERLAFVLSSNSLEHC [K22E] | 2.2
TGEFLKLPFERLAFVLSSNSLRHC [K22R] | 2.48
TGEFLKLPFERLAFVLSSNSLQHC [K22Q] | 4.87
TGEFLKLPFERLAFVLSSNSLWHC [K22W] | 3.33
TGEFLKLPFERLAFVLSSNSLMHC [K22M] | 3.25

Variants of: B2
Assay: as above
Conditions: c terminus: a fixed tail appended

Variant | protein stability index
DTGSQPTAERITQLSAPHCKKLSL [F1D] | 4.38
ETGSQPTAERITQLSAPHCKKLSL [F1E] | 4.26
ATGSQPTAERITQLSAPHCKKLSL [F1A] | 4.03
CTGSQPTAERITQLSAPHCKKLSL [F1C] | 3.48
